Source: patent publication US20060253917A1 (published 2006)
One block for each binder: values may come before it.

B1: OsMADS15 aa 100-235 (other)
chain: AKIETIQKCHKHLMGEDHESLNLKELQQLEQQLESSLKHIISRKSHLMLESISELQKKERSLQEENKALQKELVERQKNVRGQQQVGQWDQTQVQAQAQAQPQAQTSSSSSSMLRDQQALLPPQNICYPPVMMGER
notes: bait, Gal4 DBD fusion; also called PN20842
B9: OsHOS59 aa 1-100 (other)
chain: LDLFMTHYVLLLCSFKEQLQQHVRVHAMEAVMACWELEQTLQSLTGASPREGSGATMSDDEDNQVDSESNMFDGNDGSDGMGFGPLMLTEGERSLVERVR
notes: bait, Gal4 DBD fusion; also called PN20559; O. sativa Homeobox Protein HOS59, Fragment
B10: OsMADS3 aa 70-170 (other)
chain: KKANSDTSNSGTVAEVNAQHYQQESSKLRQQISSLQNANSRTIVGDSINTMSLRDLKQVENRLEKGIAKIRARKNELLYAEVEYMQKREVELQNDNMYLRS
notes: bait, Gal4 DBD fusion; also called PN20700

What was measured:
OsMADS1 aa 74-172 = molecular target: T1, OsMADS1 aa 74-172 (Oryza sativa, UniProt A2XDY1 74-172); experiment: Y2H; input trait library
T1 construct: prey, AD fusion; also called PN19788
T1 sequence: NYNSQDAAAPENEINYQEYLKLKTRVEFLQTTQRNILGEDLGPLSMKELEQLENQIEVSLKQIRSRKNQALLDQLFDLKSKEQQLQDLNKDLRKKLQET
Method in brief: (§1)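 Protein-protein interactions were detected in an automated, high-throughput yeast two-hybrid assay from Myriad Genetics Inc. (Salt Lake City, Utah), with a bait clone encoding a defined amino-acid fragment of a rice protein screened against the input trait or output trait rice prey library. Interacting proteins were identified by BLAST comparison of the encoding sequences of retrieved prey clones against databases.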

OsMADS1 aa 95-254 = molecular target: T2, OsMADS1 aa 95-254 (Oryza sativa, UniProt A2XDY1 95-254); experiment: Y2H; input trait library
T2 construct: prey, AD fusion; also called PN19788
T2 sequence: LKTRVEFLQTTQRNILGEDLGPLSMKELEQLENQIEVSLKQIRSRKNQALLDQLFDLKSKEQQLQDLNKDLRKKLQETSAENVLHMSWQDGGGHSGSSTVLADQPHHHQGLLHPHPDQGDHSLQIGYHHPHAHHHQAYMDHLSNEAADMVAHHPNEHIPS
Method in brief: as §1

OsMADS45 aa 120-249 = molecular target: T3, OsMADS45 aa 120-249 (Oryza sativa, UniProt P0C5B0 120-249); experiment: Y2H; output trait library
T3 construct: prey, AD fusion; also called PN20231
T3 sequence: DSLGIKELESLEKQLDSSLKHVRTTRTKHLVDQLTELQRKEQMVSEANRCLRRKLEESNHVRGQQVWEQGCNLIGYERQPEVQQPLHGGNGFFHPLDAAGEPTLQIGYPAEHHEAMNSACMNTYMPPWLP
Method in brief: as §1

OsHOS59 aa 1-206 = molecular target: T4, OsHOS59 aa 1-206 (Oryza sativa, UniProt Q94LW4 113-311); experiment: Y2H; input trait library
T4 construct: bait, Gal4 DBD fusion; also called PN20559
T4 sequence: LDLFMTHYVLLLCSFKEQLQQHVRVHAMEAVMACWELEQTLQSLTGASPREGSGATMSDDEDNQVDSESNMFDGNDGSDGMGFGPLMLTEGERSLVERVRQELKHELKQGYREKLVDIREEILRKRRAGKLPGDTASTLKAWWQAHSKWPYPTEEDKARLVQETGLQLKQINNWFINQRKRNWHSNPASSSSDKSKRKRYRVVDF
Method in brief: as §1

OsE2F2 (367) aa 1-368 = molecular target: T5, OsE2F2 (367) aa 1-368 (Oryza sativa); experiment: Y2H; input trait library
T5 construct: bait, Gal4 DBD fusion; also called PN21003; E2F2 Homolog, Alt
T5 sequence (chain, as listed by the source limits assumed): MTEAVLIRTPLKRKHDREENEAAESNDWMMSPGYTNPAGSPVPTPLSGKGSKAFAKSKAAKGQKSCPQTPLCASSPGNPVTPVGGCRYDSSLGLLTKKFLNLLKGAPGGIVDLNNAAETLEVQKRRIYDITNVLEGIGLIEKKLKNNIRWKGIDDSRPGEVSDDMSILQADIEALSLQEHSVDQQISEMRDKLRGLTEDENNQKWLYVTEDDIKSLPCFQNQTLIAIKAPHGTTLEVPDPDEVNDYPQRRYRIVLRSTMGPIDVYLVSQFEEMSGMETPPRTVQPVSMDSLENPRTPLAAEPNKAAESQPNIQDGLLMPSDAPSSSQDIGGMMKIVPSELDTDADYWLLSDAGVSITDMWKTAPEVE
Method in brief: as §1

OsMADS3 aa 70-170 = molecular target: B10; experiment: Y2H; input trait library
Method in brief: as §1

Os003181-3684 aa 58-140 = molecular target: T6, Os003181-3684 aa 58-140 (Oryza sativa); experiment: Y2H; output trait library
T6 construct: bait, Gal4 DBD fusion; also called PN21036; Hypothetical Protein 003181-3684
T6 chain: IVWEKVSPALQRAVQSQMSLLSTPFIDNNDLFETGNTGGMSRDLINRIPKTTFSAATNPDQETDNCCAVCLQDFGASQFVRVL
Method in brief: as §1

OsMADS17 aa 51-248 = molecular target: T7, OsMADS17 aa 51-248 (Oryza sativa, UniProt Q7XUN2 51-248); experiment: Y2H; output trait library
T7 construct: prey, AD fusion; also called PN20914
T7 sequence: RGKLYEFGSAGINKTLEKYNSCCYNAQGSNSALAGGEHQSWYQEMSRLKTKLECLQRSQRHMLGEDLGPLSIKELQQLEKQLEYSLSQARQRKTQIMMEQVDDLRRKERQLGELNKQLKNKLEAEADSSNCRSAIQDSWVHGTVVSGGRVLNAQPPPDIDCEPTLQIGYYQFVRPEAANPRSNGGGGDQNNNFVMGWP
Method in brief: as §1

OsFDRMADS6 aa 74-246 = molecular target: T8, OsFDRMADS6 aa 74-246 (Oryza sativa, UniProt P0C5B1 74-246); experiment: Y2H; output trait library
T8 construct: prey, AD fusion; also called PN19766
T8 sequence: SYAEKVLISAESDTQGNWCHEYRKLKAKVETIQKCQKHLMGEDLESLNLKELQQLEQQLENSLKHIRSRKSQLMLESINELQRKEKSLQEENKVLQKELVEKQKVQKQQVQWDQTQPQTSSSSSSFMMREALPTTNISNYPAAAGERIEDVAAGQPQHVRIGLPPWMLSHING
Method in brief: as §1

OsMADS15 aa 100-235 = molecular target: B1; experiment: Y2H; input trait library
Method in brief: as §1

OsHOS59 aa 1-100 = molecular target: B9; experiment: Y2H; input trait library
Method in brief: as §1

Os000221-3976 aa 123-238 = molecular target: T9, Os000221-3976 aa 123-238 (Oryza sativa, UniProt Q07078 342-457); experiment: Y2H; input trait library
T9 construct: prey, AD fusion; also called PN23169
T9 sequence (Q07078 342-457): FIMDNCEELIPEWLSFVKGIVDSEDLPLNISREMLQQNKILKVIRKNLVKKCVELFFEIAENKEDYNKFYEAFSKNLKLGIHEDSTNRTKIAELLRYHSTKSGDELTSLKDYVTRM
Method in brief: as §1

OsMADS8 aa 61-248 = molecular target: T10, OsMADS8 aa 61-248 (Oryza sativa, UniProt Q9SAR1 61-248); experiment: Y2H; input trait library
T10 construct: prey, AD fusion; also called PN20778
T10 sequence: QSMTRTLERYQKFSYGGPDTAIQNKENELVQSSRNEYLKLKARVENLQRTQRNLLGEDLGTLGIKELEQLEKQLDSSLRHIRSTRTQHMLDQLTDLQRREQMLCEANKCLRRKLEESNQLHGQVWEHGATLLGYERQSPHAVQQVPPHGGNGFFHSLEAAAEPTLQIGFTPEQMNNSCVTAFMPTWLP
Method in brief: as §1

OsMADS45 aa 48-249 = molecular target: T11, OsMADS45 aa 48-249 (Oryza sativa, UniProt P0C5B0 48-249); experiment: Y2H; input trait library
T11 construct: prey, AD fusion; also called PN20231
T11 sequence: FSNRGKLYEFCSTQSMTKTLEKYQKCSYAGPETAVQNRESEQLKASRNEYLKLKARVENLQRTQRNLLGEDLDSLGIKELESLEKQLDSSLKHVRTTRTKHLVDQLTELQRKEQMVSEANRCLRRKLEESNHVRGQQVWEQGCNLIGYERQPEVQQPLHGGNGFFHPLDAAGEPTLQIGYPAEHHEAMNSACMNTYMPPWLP
Method in brief: as §1

OsMADS45 aa 57-249 = molecular target: T12, OsMADS45 aa 57-249 (Oryza sativa, UniProt P0C5B0 57-249); experiment: Y2H; output trait library
T12 construct: prey, AD fusion; also called PN20231
T12 sequence: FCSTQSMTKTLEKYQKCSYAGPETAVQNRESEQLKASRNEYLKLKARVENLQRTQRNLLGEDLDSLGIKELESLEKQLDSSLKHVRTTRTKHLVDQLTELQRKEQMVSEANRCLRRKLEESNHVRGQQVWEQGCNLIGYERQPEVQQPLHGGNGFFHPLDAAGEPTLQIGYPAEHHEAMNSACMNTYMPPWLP
Method in brief: as §1

OsMADS8 aa 6-159 = molecular target: T13, OsMADS8 aa 6-159 (Oryza sativa, UniProt Q9SAR1 6-159); experiment: Y2H; output trait library
T13 construct: prey, AD fusion; also called PN20778
T13 sequence: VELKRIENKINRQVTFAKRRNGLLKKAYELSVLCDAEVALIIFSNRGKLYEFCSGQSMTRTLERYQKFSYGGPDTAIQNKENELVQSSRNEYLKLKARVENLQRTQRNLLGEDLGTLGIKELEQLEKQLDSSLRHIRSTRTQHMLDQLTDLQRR
Method in brief: as §1

OsMADS8 aa 68-245 = molecular target: T14, OsMADS8 aa 68-245 (Oryza sativa, UniProt Q9SAR1 68-245); experiment: Y2H; output trait library
T14 construct: prey, AD fusion; also called PN20778
T14 sequence: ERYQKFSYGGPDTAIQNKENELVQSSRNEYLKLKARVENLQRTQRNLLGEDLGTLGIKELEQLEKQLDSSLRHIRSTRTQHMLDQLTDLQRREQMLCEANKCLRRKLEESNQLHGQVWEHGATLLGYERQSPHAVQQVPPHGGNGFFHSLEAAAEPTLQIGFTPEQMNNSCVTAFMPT
Method in brief: as §1

OsMADS45 aa 2-214 = molecular target: T15, OsMADS45 aa 2-214 (Oryza sativa, UniProt P0C5B0 2-214); experiment: Y2H; output trait library
T15 construct: prey, AD fusion; also called PN20231
T15 sequence: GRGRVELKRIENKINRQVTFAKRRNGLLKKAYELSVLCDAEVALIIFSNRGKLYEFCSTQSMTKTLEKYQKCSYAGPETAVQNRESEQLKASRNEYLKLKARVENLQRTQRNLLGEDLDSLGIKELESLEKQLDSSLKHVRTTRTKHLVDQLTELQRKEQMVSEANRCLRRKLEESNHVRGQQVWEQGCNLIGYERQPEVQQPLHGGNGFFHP
Method in brief: as §1

Binder: B1
binding result (OsMADS1 aa 74-172): binds
binding result (OsMADS1 aa 95-254): binds
binding result (OsMADS45 aa 120-249): binds

binding result (OsHOS59 aa 1-206): binds
B2: OsPN23251 aa 112-291 (other)
chain: DMNLITDQDFTELVQKVPDDCLFTIVSDSCHSGGLLDKTKEQIGHSTKQNQAQQIKREERSDSGTGGFRSFLKETLKETVRDAFESRGVHIPHQSSRRNDDEDEEPHMGSSSHGGDRIKNRSLPLSTLIEMLKEKTGKDDIDVGSIRMTLFSLFGDDASPKIKKFMKVMLTKLQEGQHGG
notes: prey, AD fusion; also called Novel Protein PN23251

binding result (OsE2F2 (367) aa 1-368): binds
B3: Os018989-4003 aa 69-294 (other)
chain: GGGGNAAEREEGGANRNGKKEKTGAQRITGWGLREFSKIVSKKVEAKGRTTYNEVADEIFAELKSITQNGLEFDEKNIRRRVYDAFNVLIAIRVIAKDKKEIKWMGLTNYRYEKIQKLEEVHKELITRIKNKKKLLQEIEKQFDDLQNITLRNQASQRPAESVNGILLPFLLIKTSRKARVEIEISEDSKFARFDFNGAPFTMHDDVSILEAIRRNKGRAGLSIHP
notes: prey, AD fusion; also called PN21044

binding result (OsMADS3 aa 70-170): binds
B4: OsPN31165 aa 58-252 (other)
chain: YAREMERLSAKESLLLAFRDAGGFESLVSGKTTGMQKIDVNERIVGLERLNPTPRPTTSPFLEGRWNFEWFGDSSPGALAARLLFERSPTTVAHFTGLDVLIKDGYSKISSNVKFLNTVQSKFLLTTQLSVEGPIRMKEEYVEGLIEIPRIREETLPDQLKGFFGQTAGALQQLPAPIRDAVSEGIKLPLNGMFQ
notes: prey, AD fusion; also called Novel protein PN31165

binding result (Os003181-3684 aa 58-140): binds
B5: OsAAD27557 aa 1-149 (other)
chain: MDSTKQDFQPRTFSIKLWPPSESTRLMLVERMTKNLSTESIFSRKYGLLGKEEAHDNAKRIEEVCFASADEHFKEEPDGDGSSAVQLYAKETSKLMLEVLKRGPRTTVEPEVPVADTPLEPADSVFDISGGKRAFIEADEAKELLSPLI
notes: prey, AD fusion; also called PN22896

binding result (OsMADS17 aa 51-248): binds
binding result (OsFDRMADS6 aa 74-246): binds
B6: OsMADS5 aa 50-160 (other)
chain: TRGRLFEFSTSSCMYKTLERYRSCNYNLNSCEASAALETELSNYQEYLKLKTRVEFLQTTQRNLLGEDLVPLSLKELEQLENQIEISLMNIRSSKNQQLLDQVFELKRKEQ
notes: bait, Gal4 DBD fusion; also called PN20770

binding result (OsMADS15 aa 100-235): binds
B7: OsPN29971 aa 1-108 (other)
chain: EKSDVQSTLEMELDRRSNDWSVKLAEFQSEEQRLRERVRELAEQNVSFQREVTLLESNRIDVSNKITSLELQNKQLNDELQKVKKEHDTLLKSSVELNDNLTKTAEGY
notes: prey, AD fusion; also called Novel protein PN29971, fragment, similar to A. thaliana centromere protein

binding result (OsHOS59 aa 1-100): binds
B8: OsAAD27557 aa 7-142 (other)
chain: DFQPRTFSIKLWPPSESTRLMLVERMTKNLSTESIFSRKYGLLGKEEAHDNAKRIEEVCFASADEHFKEEPDGDGSSAVQLYAKETSKLMLEVLKRGPRTTVEPEVPVADTPLEPADSVFDISGGKRAFIEADEAK
notes: as for B5

Binder: B9
binding result (Os000221-3976 aa 123-238): binds

Binder: B10
binding result (OsMADS8 aa 61-248): binds
binding result (OsMADS45 aa 48-249): binds
binding result (OsMADS45 aa 57-249): binds
binding result (OsMADS8 aa 6-159): binds
binding result (OsMADS8 aa 68-245): binds
binding result (OsMADS45 aa 2-214): binds
